*1 amine or outer side, *2 acyl side, *3 side chain or, on linkers, in order; H or OH if unused. Bridges are numbered along the chain shown (N, C = ends). Where no end group is shown, it is not given here. tris(bromomethyl)mesitylene = scaffold as named in the source, Cc1c(C[*:1])c(C)c(C[*:3])c(C)c1C[*:2]; THME(IAc3) = trishydroxymethylethane trisiodoacetate, CC(COC(=O)C[*:1])(COC(=O)C[*:2])COC(=O)C[*:3]; TBMB = c1c(C[*:1])cc(C[*:3])cc1C[*:2]
Key:
MDM2 (res 2-125) [1] = molecular target: T1, MDM2 (res 2-125) (UniProt Q00987 2-125); assay: fluorescence anisotropy titration (intrinsic Trp fluorescence), 23 C, PBS, 5 mM DTT
T1 construct: range 2-125; Titrant in the fluorescence anisotropy experiments
Description: (§1) Titration experiments were run on a Horiba Jobin Yvon fluorimeter equipped with the Hamilton Microlab titrator controlled by laboratory software. The λₑₓ and λₑₘ used were 295 nm and 350 nm, respectively. The slit widths for excitation and emission were 5 nm and 15 nm and the integration time 1 Os was used for each measurement. […] The experiments were performed at 23° C. in PBS, 5 mM DTT. […] Titration data were analyzed with a standard 1:1 binding model by using the quadratic solution to the equilibrium Kd=[A][B]/[AB]. […] The fitting equation contained an extra term to account for linear drift.

MDM2 (res 2-125) [2] = molecular target: T1, MDM2 (res 2-125); assay: fluorescence anisotropy titration, excitation 295 nm, 23 C, PBS, 5 mM DTT
Description: as §1

kallikrein = kallikrein (UniProt P03952 20-638, limits assumed); assay: cell-based or functional assay
MDM2 (res 2-125) [3] = molecular target: T1, MDM2 (res 2-125); assay: fluorescence anisotropy
MDM2 (res 2-125) [4] = molecular target: T1, MDM2 (res 2-125); assay: fluorescence anisotropy titration, excitation 280 nm, 23 C, PBS, 5 mM DTT

kallikrein, sequence (P03952 20-638 limits assumed): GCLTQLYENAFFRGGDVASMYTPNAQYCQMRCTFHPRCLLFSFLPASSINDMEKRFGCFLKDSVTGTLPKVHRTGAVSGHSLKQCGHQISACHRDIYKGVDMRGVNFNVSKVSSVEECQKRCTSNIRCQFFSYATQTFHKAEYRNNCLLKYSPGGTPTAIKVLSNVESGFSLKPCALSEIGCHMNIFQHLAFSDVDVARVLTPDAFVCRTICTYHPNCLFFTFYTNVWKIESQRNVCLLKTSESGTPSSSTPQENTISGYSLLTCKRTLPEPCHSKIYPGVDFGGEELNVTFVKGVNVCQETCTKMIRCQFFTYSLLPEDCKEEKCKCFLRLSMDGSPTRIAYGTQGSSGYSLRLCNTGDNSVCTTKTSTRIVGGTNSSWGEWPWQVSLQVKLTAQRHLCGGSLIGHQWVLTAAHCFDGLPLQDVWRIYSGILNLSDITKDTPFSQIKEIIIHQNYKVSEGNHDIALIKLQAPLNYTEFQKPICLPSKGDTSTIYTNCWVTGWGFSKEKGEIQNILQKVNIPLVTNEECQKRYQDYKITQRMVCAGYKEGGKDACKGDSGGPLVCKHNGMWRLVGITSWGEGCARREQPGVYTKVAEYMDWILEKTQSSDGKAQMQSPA
T1 sequence (Q00987 2-125 limits assumed): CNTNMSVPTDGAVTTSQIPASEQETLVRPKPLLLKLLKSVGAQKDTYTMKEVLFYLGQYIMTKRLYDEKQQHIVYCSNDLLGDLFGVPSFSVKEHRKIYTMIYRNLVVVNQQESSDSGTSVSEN

B1: PEP10 synthetic peptide conjugated with TBMB (peptide)
peptide: H-SCELWNPKCRLSPFECKG-OH
modifications: linker 2-9-16 via TBMB
notes: The anisotropy paragraph says only 'peptides 10, 48'; also called peptide 10
Binder B1 has a Kd (MDM2 (res 2-125) [1]) of 250 to 750 nM and a Kd (MDM2 (res 2-125) [2]) of 267 nM.

B2: PK15 with central cysteine altered to methionine, TBMB conjugate, second of two HPLC products (peptide)
peptide: ACSDRFRNMPADEALCG
modifications: both cysteines and the single methionine conjugated to TBMB
In the case of B2, the “IC50 of inhibition of kallikrein activity” value (kallikrein) is reported as greater than 10 µM.

B3: PK15 conjugated with tris(bromoethyl)mesitylene (peptide)
peptide: ACSDRFRNCPADEALCG
modifications: linker 2-9-16 via tris(bromoethyl)mesitylene
With B3 the “IC50 of inhibition of kallikrein (Z-Phe-Arg-AMC substrate, fluorescence)” value (kallikrein) was roughly 400 nM.

B4: PEP48-3s1 conjugated with THME(IAc3), HPLC peak / stereoisomer with affinity 1600 nM (peptide)
peptide: SDDCVRFGWTCPTVMCG
modifications: linker 4-11-16 via THME(IAc3); also: one of two stereoisomers (HPLC peaks), not assigned
notes: The other of two HPLC peaks of identical mass (expected stereoisomers); also called PEP48-3s1-THME(IAc3)
B4 was tested, and the Kd (MDM2 (res 2-125) [3]) was 1600 nM.

B5: oxidized PK15-TBMB (sulphone) (peptide)
peptide: ACSDRFRNCPADEALCG
modifications: linker 2-9-16 via TBMB; also: thioether links to TBMB oxidised to sulphones
In the case of B5, the “IC50 of inhibition of kallikrein (Z-Phe-Arg-AMC substrate, fluorescence)” value (kallikrein) is reported as 1300 nM.

B6: PEP48-3s1 conjugate (TBMB) (peptide)
peptide: SDDCVRFGWTCPTVMCG
modifications: linker 4-11-16 via TBMB
notes: PEP48 derivative with the second loop re-selected
For B6, the Kd (MDM2 (res 2-125) [3]) was 27 to 100 nM.

B7: PK15 with central cysteine altered to methionine, TBMB conjugate, first of two HPLC products (peptide)
peptide: ACSDRFRNMPADEALCG
modifications: both cysteines and the single methionine conjugated to TBMB
B7 was tested, and the “IC50 of inhibition of kallikrein activity” value (kallikrein) was greater than 10 µM.

B8: PEP48-3s1 conjugated with THME(IAc3), HPLC peak / stereoisomer with affinity 640 nM (peptide)
peptide: SDDCVRFGWTCPTVMCG
modifications: linker 4-11-16 via THME(IAc3); also: one of two stereoisomers (HPLC peaks), not assigned
notes: One of two HPLC peaks of identical mass (expected stereoisomers); also called PEP48-3s1-THME(IAc3)
Binder B8 has a Kd (MDM2 (res 2-125) [3]) of 640 nM.

B9: oxidized PK15-TBMB (sulphoxides, +3 oxygen atoms) (peptide)
peptide: ACSDRFRNCPADEALCG
modifications: linker 2-9-16 via TBMB; also: thioether links to TBMB oxidised to sulphoxides (stereoisomer mixture)
For B9, the “IC50 of inhibition of kallikrein (Z-Phe-Arg-AMC substrate, fluorescence)” value (kallikrein) was roughly 2400 nM.

B10: PK15-TBMB (peptide)
peptide: ACSDRFRNCPADEALCG
modifications: linker 2-9-16 via TBMB
With B10 the “IC50 of inhibition of kallikrein (Z-Phe-Arg-AMC substrate, fluorescence)” value (kallikrein) was 13 nM.

B11: PEP48 synthetic peptide conjugated with TBMB (peptide)
peptide: H-SCVRFGWTCDNSWHGCKG-OH
modifications: linker 2-9-16 via TBMB
notes: The anisotropy paragraph says only 'peptides 10, 48'; also called peptide 48
With B11 the Kd (MDM2 (res 2-125) [1]) was 250 to 750 nM, the Kd (MDM2 (res 2-125) [2]) was 567 nM and the Kd (MDM2 (res 2-125) [4]) was 760 nM.

B12: PK15 conjugated with tris(bromomethyl)mesitylene (peptide)
peptide: ACSDRFRNCPADEALCG
modifications: linker 2-9-16 via tris(bromomethyl)mesitylene
For B12, the “IC50 of inhibition of kallikrein (Z-Phe-Arg-AMC substrate, fluorescence)” value (kallikrein) was 150 nM.

Source: patent publication US20170067045A1 (Bicycle, published 2017)
